Data published in paper PMC7954794, “Protein context shapes the specificity of SH3 domain-mediated interactions in vivo” (Nature Communications, 2021).

Key:
[1] = test system: 575 putative partners (preys) of 22 WT SH3-containing proteins; assay: DHFR-PCA on solid medium, WT and SH3-deleted baits (Fig. 1B); assay type: cell-based, Saccharomyces cerevisiae; details: number of PPIs; SH3 domain in its own protein; DHFR-PCA; Fig2D,S2F
Outline: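 Interactions scored by DHFR protein-fragment complementation on solid medium using robotic pinning; preys (DHFR F[3] fusions) arrayed in duplicate with control borders. Baits carried C-terminal DHFR F[1,2]-FLAG tags, tested as wild type and as SH3-deleted versions carrying a flexible Gly/Ser stuffer.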

[2] = test system: Abp1 (1xFLAG); assay: Western blot expression level of Abp1 SH3-swapped baits (Fig. S2A-B); assay type: cell-based, Saccharomyces cerevisiae; design: Flag (2 bands): unit not given here; details: sheet FigS2A-B; for Ratio Swap/WT Flag: Flag signal relative to Abp1 WT (Abp1-1 to Abp1-4 = 1); for Flag (2 bands): Western blot Flag signal (2 bands), Abp1 WT, SH3-deleted or SH3-swapped
Outline: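 Yeast expressing DHFR F[1,2]-FLAG-tagged baits grown in synthetic complete medium at 30 °C to OD600 ~1.0, lysed with glass beads in Tris pH 7.4/150 mM NaCl/1% Triton X-100. Baits immunoprecipitated on FLAG-M2 beads 120 min at 4 °C, resolved on 10% SDS-PAGE, probed with anti-FLAG HRP (ECL), signals quantified by imager.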

Molecule | SH3-dependent PPIs [1] | Ratio Swap/WT Flag [2] | Flag (2 bands) [2]
BBC1: yeast SH3-containing protein; SH3-deleted or knockout strain (protein, UniProt P47068 1-1157, looked up) Myosin tail …: MSEPEVPFKVVAQFPYKSDYEDDLNFEKDQEIIVTSVEDAEWYFGEYQDSNGDVIEGIFPKSFVAVQGSEVGKEAESSPNTGSTEQRTIQPEVEQKDLPEPISPETKKETLSGPVPVPAATVPVPAATVPVPAATAVSAQVQHDSSSGNGERKVPMDSPKLKARLSMFNQDITEQVPLPKSTHLDLENIPVKKTIVADAPKYYVPPGIPTNDTSNLERKKSLKENEKKIVPEPINRAQVESGRIETENDQLKKDLPQMSLKERIALLQEQQRLQAAREEELLRKKAKLEQEHERSAVNKNEPYTETEEAEENEKTEPKPEFTPETEHNEEPQMELLAHKEITKTSREADEGTNDIEKEQFLDEYTKENQKVEESQADEARGENVAEESEIGYGHEDREGDNDEEKEEEDSEENRRAALRERMAKLSGASRFGAPVGFNPFGMASGVGNKPSEEPKKKQHKEKEEEEPEQLQELPRAIPVMPFVDPSSNPFFRKSNLSEKNQPTETKTLDPHATTEHEQKQEHGTHAYHNLAAVDNAHPEYSDHDSDEDTDDHEFEDANDGLRKHSMVEQAFQIGNNESENVNSGEKIYPQEPPISHRTAEVSHDIENSSQNTTGNVLPVSSPQTRVARNGSINSLTKSISGENRRKSINEYHDTVSTNSSALTETAQDISMAAPAAPVLSKVSHPEDKVPPHPVPSAPSAPPVPSAPSVPSAPPVPPAPPALSAPSVPPVPPVPPVSSAPPALSAPSIPPVPPTPPAPPAPPAPLALPKHNEVEEHVKSSAPLPPVSEEYHPMPNTAPPLPRAPPVPPATFEFDSEPTATHSHTAPSPPPHQNVTASTPSMMSTQQRVPTSVLSGAEKESRTLPPHVPSLTNRPVDSFHESDTTPKVASIRRSTTHDVGEISNNVKIEFNAQERWWINKSAPPAISNLKLNFLMEIDDHFISKRLHQKWVVRDFYFLFENYSQLRFSLTFNSTSPEKTVTTLQERFPSPVETQSARILDEYAQRFNAKVVEKSHSLINSHIGAKNFVSQIVSEFKDEVIQPIGARTFGATILSYKPEEGIEQLMKSLQKIKPGDILVIRKAKFEAHKKIGKNEIINVGMDSAAPYSSVVTDYDFTKNKFRVIENHEGKIIQNSYKLSHMKSGKLKVFRIVARGYVGW | 19 | 0.7943 | 76893
WT (protein, UniProt P15891 2-592, looked up) Actin-binding protein: ALEPIDYTTHSREIDAEYLKIVRGSDPDTTWLIISPNAKKEYEPESTGSSFHDFLQLFDETKVQYGLARVSPPGSDVEKIIIIGWCPDSAPLKTRASFAANFAAVANNLFKGYHVQVTARDEDDLDENELLMKISNAAGARYSIQTSSKQQGKASTPPVKKSFTPSKSPAPVSKKEPVKTPSPAPAAKISSRVNDNNDDDDWNEPELKERDFDQAPLKPNQSSYKPIGKIDLQKVIAEEKAKEDPRLVQKPTAAGSKIDPSSDIANLKNESKLKRDSEFNSFLGTTKPPSMTESSLKNDDDKVIKGFRNEKSPAQLWAERKAKQNSGNAETKAEAPKPEVPEDEPEGEPDVKDLKSKFEGLAASEKEEEEMENKFAPPPKKSEPTIISPKPFSKPQEPVKAEEAEQPKTDYKKIGNPLPGMHIEADNEEEPEENDDDWDDDEDEAAQPPLPSRNVASGAPVQKEEPEQEEIAPSLPSRNSIPAPKQEEAPEQAPEEEIEEEAEEAAPQLPSRSSAAPPPPPRRATPEKKPKENPWATAEYDYDAAEDNELTFVENDKIINIEFVDDDWWLGELEKDGSKGLFPSNYVSLGN | – | 0.6226 | 60270
BOI1 (protein, UniProt P38041 1-980, looked up) BEM1-interacting protein 1: MSLEGNTLGKGAKSFPLYIAVNQYSKRMEDELNMKPGDKIKVITDDGEYNDGWYYGRNLRTKEEGLYPAVFTKRIAIEKPENLHKSPTQESGNSGVKYGNLNDSASNIGKVSSHQQENRYTSLKSTMSDIDKALEELRSGSVEQEVSKSPTRVPEVSTPQLQDEQTLIQEKTRNEENTTHDSLFSSTADLNLSSESLKNISKSNISTKSLEPSSESVRQLDLKMAKSWSPEEVTDYFSLVGFDQSTCNKFKEHQVSGKILLELELEHLKELEINSFGIRFQIFKEIRNIKSAIDSSSNKLDADYSTFAFENQAAQLMPAATVNRDEIQQQISSKCNKLSSESSDRKSSSVTTELQRPSSVVVNPNFKLHDPAEQILDMTEVPNLFADKDIFESPGRAPKPPSYPSPVQPPQSPSFNNRYTNNNARFPPQTTYPPKNKNPTVYSNGLIPNSSTSSDNSTGKFKFPAMNGHDSNSRKTTLTSATIPSINTVNTDESLPAISNISSNATSHHPNRNSVVYNNHKRTESGSSFVDLFNRISMLSPVKSSFDEEETKQPSKASRAVFDSARRKSSYGHSRDASLSEMKKHRRNSSILSFFSSKSQSNPTSPTKQTFTIDPAKMTSHSRSQSNSYSHARSQSYSHSRKHSLVTSPLKTSLSPINSKSNIALAHSETPTSSNNKEAVSQPSEGKHKHKHKHKSKHKHKNSSSKDGSSEEKSKKKLFSSTKESFVGSKEFKRSPSELTQKSTKSILPRSNAKKQQTSAFTEGIRSITAKESMQTADCSGWMSKKGTGAMGTWKQRFFTLHGTRLSYFTNTNDEKERGLIDITAHRVLPASDDDRLISLYAASLGKGKYCFKLVPPQPGSKKGLTFTEPRVHYFAVENKSEMKAWLSAIIKATIDIDTSVPVISSYATPTIPLSKAQTLLEEARLQTQLRDAEEEEGRDQFGWDDTQNKRNSNYPIEQDQFETSDYLESSAFEYPGGRL | 3 | – | –
